From patent US20190040115A1 (IMMATICS BIOTECHNOLOGIES, published 2019) come the findings set out here.

The assay concerns the target T1, HLA-A*02:01 (human).
T1 construct: captured on streptavidin plates; also called peptide-receptive MHC molecules
Briefly: UV peptide exchange ELISA (anti-b2m); yield grade: + >10%, ++ >20%, +++ >50, ++++ >75%. The text has this: Candidate peptides for T cell based therapies according to the present invention were further tested for their MHC binding capacity (affinity). The individual peptide-MHC complexes were produced by UV-ligand exchange, where a UV-sensitive peptide is cleaved upon UV-irradiation, and exchanged with the peptide of interest as analyzed. Only peptide candidates that can effectively bind and stabilize the peptide-receptive MHC molecules prevent dissociation of the MHC complexes. To determine the yield of the exchange reaction, an ELISA was performed based on the detection of the light chain (β2m) of stabilized MHC complexes. The assay was performed as generally described in Rodenko et al. (Rodenko et al., 2006).
96 well MAXISorp plates (NUNC) were coated over night with 2 ug/ml streptavidin in PBS at room temperature, washed 4× and blocked for 1 h at 37° C. in 2% BSA containing blocking buffer. Refolded HLA-A*02:01/MLA-001 monomers served as standards, covering the range of 15-500 ng/ml. Peptide-MHC monomers of the UV-exchange reaction were diluted 100 fold in blocking buffer. Samples were incubated for 1 h at 37° C., washed four times, incubated with 2 ug/ml HRP conjugated anti-β2m for 1 h at 37° C., washed again and detected with TMB solution that is stopped with […]. Absorption was measured at 450 nm. Candidate peptides that show a high exchange yield (preferably higher than 50%, most preferred higher than 75%) are generally preferred for a generation and production of antibodies or fragments thereof, and/or T cell receptors or fragments thereof, as they show sufficient avidity to the MHC molecules and prevent dissociation of the MHC complexes.

B1: KVSGVILSV (peptide)
peptide: KVSGVILSV
Consider B1, for which the peptide exchange yield is greater than 75%.

B2: ALFFQLVDV (peptide)
peptide: ALFFQLVDV
Take B2: the peptide exchange yield was in the range of 20 to 50%.

B3: GLCDSIITI (peptide)
peptide: GLCDSIITI
For the molecule B3, the peptide exchange yield was greater than 75%.

B4: FLPAGIVAV (peptide)
peptide: FLPAGIVAV
B4: the peptide exchange yield is greater than 75%.

B5: ILWDTLLRL (peptide)
peptide: ILWDTLLRL
On to B5, for which the peptide exchange yield was greater than 75%.

B6: FLDHEMVFL (peptide)
peptide: FLDHEMVFL
B6: the peptide exchange yield was greater than 75%.

B7: RLDEVSREL (peptide)
peptide: RLDEVSREL
Consider B7, for which the peptide exchange yield was 50 to 75%.

B8: GVGPVPARA (peptide)
peptide: GVGPVPARA
As to B8, the peptide exchange yield is 50 to 75%.

B9: TLDGNPFLV (peptide)
peptide: TLDGNPFLV
On to B9, for which the peptide exchange yield is 50 to 75%.

B10: ILDDQTNKL (peptide)
peptide: ILDDQTNKL
With B10, the peptide exchange yield lay in the range of 50 to 75%.

B11: ILDDSALYL (peptide)
peptide: ILDDSALYL
In the case of B11, the peptide exchange yield was greater than 75%.

B12: HLFETISQA (peptide)
peptide: HLFETISQA
B12: the peptide exchange yield is 50 to 75%.

B13: SLADVVDTL (peptide)
peptide: SLADVVDTL
In the case of B13, the peptide exchange yield is greater than 75%.

B14: KLIPSIIVL (peptide)
peptide: KLIPSIIVL
With B14, the peptide exchange yield lay within 50 to 75%.

B15: TLKDIVQTV (peptide)
peptide: TLKDIVQTV
With B15, the peptide exchange yield lay within 50 to 75%.

B16: GLIDLEANYL (peptide)
peptide: GLIDLEANYL
For the molecule B16, the peptide exchange yield was greater than 75%.

B17: FLGEPASYLYL (peptide)
peptide: FLGEPASYLYL
In the case of B17, the peptide exchange yield is greater than 75%.

B18: GVVHGVATV (peptide)
peptide: GVVHGVATV
In the case of B18, the peptide exchange yield is greater than 75%.

B19: TLYEQEIEV (peptide)
peptide: TLYEQEIEV
Take B19: the peptide exchange yield is greater than 75%.

B20: KLFPSPLQTL (peptide)
peptide: KLFPSPLQTL
On to B20, for which the peptide exchange yield was greater than 75%.

B21: RLMANPEALKI (peptide)
peptide: RLMANPEALKI
In the case of B21, the peptide exchange yield lay in the range of 50 to 75%.

B22: ALMDTDGSGKLNL (peptide)
peptide: ALMDTDGSGKLNL
In the case of B22, the peptide exchange yield was in the range of 50 to 75%.

B23: VLFSSPPVILL (peptide)
peptide: VLFSSPPVILL
For the molecule B23, the peptide exchange yield is greater than 75%.

B24: GLAGFFASV (peptide)
peptide: GLAGFFASV
Regarding B24, the peptide exchange yield is greater than 75%.

B25: KLKEAVEAI (peptide)
peptide: KLKEAVEAI
For the molecule B25, the peptide exchange yield fell in the range of 20 to 50%.

B26: TLGTATFTV (peptide)
peptide: TLGTATFTV
B26: the peptide exchange yield was greater than 75%.

B27: TLLESIQHV (peptide)
peptide: TLLESIQHV
Consider B27, for which the peptide exchange yield was greater than 75%.

B28: KLAEALYIA (peptide)
peptide: KLAEALYIA
Take B28: the peptide exchange yield lay within 50 to 75%.

B29: ALDDISESI (peptide)
peptide: ALDDISESI
Consider B29, for which the peptide exchange yield is greater than 75%.

B30: SVDEVEISV (peptide)
peptide: SVDEVEISV
On to B30, for which the peptide exchange yield lay within 50 to 75%.

B31: ALDDTVLQV (peptide)
peptide: ALDDTVLQV
B31: the peptide exchange yield was 50 to 75%.

B32: YLDTFALKL (peptide)
peptide: YLDTFALKL
Regarding B32, the peptide exchange yield is greater than 75%.

B33: ILADATAKM (peptide)
peptide: ILADATAKM
On to B33, for which the peptide exchange yield was greater than 75%.

B34: IMEDFTTFL (peptide)
peptide: IMEDFTTFL
For the molecule B34, the peptide exchange yield was greater than 75%.

B35: VLDSVDVRL (peptide)
peptide: VLDSVDVRL
Turning to B35, the peptide exchange yield was greater than 75%.

B36: FLDSLIYGA (peptide)
peptide: FLDSLIYGA
B36: the peptide exchange yield was greater than 75%.

B37: ALDDIIYRA (peptide)
peptide: ALDDIIYRA
Take B37: the peptide exchange yield was 50 to 75%.

B38: TLLEGLTEL (peptide)
peptide: TLLEGLTEL
On to B38, for which the peptide exchange yield fell in the range of 50 to 75%.

B39: VLYDPVVGC (peptide)
peptide: VLYDPVVGC
On to B39, for which the peptide exchange yield was greater than 75%.

B40: KLLAATLLL (peptide)
peptide: KLLAATLLL
For the molecule B40, the peptide exchange yield was greater than 75%.

B41: SLPRPTPQA (peptide)
peptide: SLPRPTPQA
On to B41, for which the peptide exchange yield was 50 to 75%.

B42: KVLGDVIEV (peptide)
peptide: KVLGDVIEV
Turning to B42, the peptide exchange yield is greater than 75%.

B43: SVALVIHNV (peptide)
peptide: SVALVIHNV
Regarding B43, the peptide exchange yield was greater than 75%.

B44: GLFPSNFVTA (peptide)
peptide: GLFPSNFVTA
As to B44, the peptide exchange yield was greater than 75%.

B45: FAYDGKDYIA (peptide)
peptide: FAYDGKDYIA
Regarding B45, the peptide exchange yield was greater than 75%.

B46: SIIPPLFTV (peptide)
peptide: SIIPPLFTV
In the case of B46, the peptide exchange yield is greater than 75%.

B47: TILATVPLV (peptide)
peptide: TILATVPLV
With B47, the peptide exchange yield was greater than 75%.

B48: ALIEVLQPLI (peptide)
peptide: ALIEVLQPLI
Regarding B48, the peptide exchange yield is greater than 75%.

B49: TLPNIYVTL (peptide)
peptide: TLPNIYVTL
As to B49, the peptide exchange yield lay in the range of 50 to 75%.
